{"source": "the nanobody polyreactivity screen of Harvey et al. (2022)"}
{"experiment": "yeast display, Sf9 membrane polyspecificity reagent, FACS + sequencing; frameworks hold sequencing errors", "how_it_was_run": "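A synthetic nanobody library was expressed on Saccharomyces cerevisiae BJ5465 by galactose induction for 36–48 hours. The library was stained for 1 hour at 4 °C with 10% biotinylated, detergent-solubilized Sf9 membrane reagent and enriched with streptavidin microbeads before FACS. Low and high (top ~1%) gates were set on anti-HA fluorescence for expression and streptavidin fluorescence for reagent binding, and each polyreactivity label reflects the gate of origin.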"}
{"sequence": "QVQLVESGGGLVQAGGSLRLSCAASASIFAYNAMGWYRQAPGKERELVAAISYSGASTYYADSVKGRFTISRDYAKNTVYLQMNSLKPEDTAVYYCAATSRRRGTKGYWQVWPRFDYWGQGTQVTVSS", "polyreactivity (PSR sort gate)": "high polyreactivity"}
{"sequence": "QVQLVESGGGLVQAGGSLRLSCAASASIFYIYAKGSYRQAPGKARELVAVIRNGGRTNYADSVKGRFTISRDNAKNTVYFQMNSLKPEDTAVYYCAARPRHVTRFDYWGQGTQVTVSS", "polyreactivity (PSR sort gate)": "high polyreactivity"}
{"sequence": "QVQLVESGGGLVQAGGSLRLSCAASASIYPYAMGWYRQAPGKERELVAAITRSGASTYYADSVKGRFTISRDNAKNTVYLQMNSMKPEDTAVYYCAAYALRGVRYPYRVDFYYWGQGTQVTVSS", "polyreactivity (PSR sort gate)": "high polyreactivity"}
{"sequence": "QVQLVESGGGLVQAGGSLRLSCAASASNIIGYAMGWYRQAPGKERELVAAITSGSITNYADSVKGRFTISRDTAKNTVYLQMNSLKPEDTAVYYCNADVNFIDDDYWGQGTQVTVSS", "polyreactivity (PSR sort gate)": "low polyreactivity"}
{"sequence": "QVQLVESGGGLVQAGGSLRLSCAASASTFAGYVMGWYRPAPGKERELVAAISVSGGSTDYADSVKGRFTISRDNAKNTVYLQMNSLKPEDTAVYYCAAVYVRNQWWRNYYWGQGTQVTVSS", "polyreactivity (PSR sort gate)": "low polyreactivity"}
{"sequence": "QVQLVESGGGLVQAGGSLRLSCAASASTFYLYAMGWYRQAPGKERELVAAISRGGTTYYADSVKGRFTISRDNEKNSVYLQMNSLKPEDTAVYYCNKLRRYSEYNADYGDYWGQGTQVTVSS", "polyreactivity (PSR sort gate)": "high polyreactivity"}
{"sequence": "QVQLVESGGGLVQAGGSLRLSCAASASTIIRNAMGWYRQAPGKERELVAAISTSGGRTHYADSVKGRFTISRDNAKNTVYLQMNSLKPEDTAVYYCDTRGKGHYYYWGQGTQVTVSS", "polyreactivity (PSR sort gate)": "high polyreactivity"}
{"sequence": "QVQLVESGGGLVQAGGSLRLSCAASDTPSSSMLMGWYRQAPGKERELVAAISGSDGTTYYADSVKVRFTISRDNAKNTVYLQMNSLKPEDTAVYYCAADDRVYSGYIKDDYWGQGTQVTVSS", "polyreactivity (PSR sort gate)": "low polyreactivity"}
{"sequence": "QVQLVESGGGLVQAGGSLRLSCAASGAIFDSNAMGWYREAPGTERELVASIDRGGDTNYADSVKGRFTISRDNAKNTVYLQMNSLKPEDTAVYYCAAYYYKWVWIGMDYWGQGTQVTVSS", "polyreactivity (PSR sort gate)": "low polyreactivity"}
{"sequence": "QVQLVESGGGLVQAGGSLRLSCAASGAIFELNAMGWYRQAPGKERELVAAIRWRTGRTYYADSVKGRFTISRDNAKNTVYLQMNSLKPEDTAVYYCAAPVRSGVRYTLDYWGQGTQVTVSS", "polyreactivity (PSR sort gate)": "high polyreactivity"}
{"sequence": "QVQLVESGGGLVQAGGSLRLSCAASGAIFFSYAMGWYRQAPGKERELVAAIRTNGGTTYYADSVKGRFTISRDNAKNTVYLQMNSLKPEDTAVYYCAALPGGYYDRGEYDYWGQGTQVTVSS", "polyreactivity (PSR sort gate)": "low polyreactivity"}
{"sequence": "QVQLVESGGGLVQAGGSLRLSCAASGAMGWYRQAPGKERELVAAITQSGGSTRYADSVKGRFTISRDNAKNTVYLQMNSLKPEDTAVYYCKAEDPREWDPYYQDGFDFWGQGTQVTVSS", "polyreactivity (PSR sort gate)": "low polyreactivity"}
{"sequence": "QVQLVESGGGLVQAGGSLRLSCAASGCIFAHNAMGWYRQAPGKERELVAASTYYADSVKGRFTISRDNAKNTVYLQMNSLKPEDTAVYYCAKRTRFSPGHDYWGQGTQVTVSS", "polyreactivity (PSR sort gate)": "high polyreactivity"}
{"sequence": "QVQLVESGGGLVQAGGSLRLSCAASGCIFASYPMGWYRPAPGTERELVAAISRAGSTYYADSVKGRFTISRDNAKNTDYLQMNSLKPEDTAVYYCNADFNWGYNYWGQGTQVTGSS", "polyreactivity (PSR sort gate)": "high polyreactivity"}
{"sequence": "QVQLVESGGGLVQAGGSLRLSCAASGCIFVSHAMGWYRQAPGKERELVAAITSGDNTKYADSVKGRFTISRDNAKNTVYLQMNSLKPEDTAVYYCAVTYRYQGAGYYWGQGTQVTVSS", "polyreactivity (PSR sort gate)": "low polyreactivity"}
{"sequence": "QVQLVESGGGLVQAGGSLRLSCAASGCIGRRYAMGWYRQAPGKERELVAAITSSGGGTYYADSVKGRFTISRDNAKNTVYFQINILTPEDTAVYYCAARVYGSHFYYRTRPYDYWGQGTQVTVSS", "polyreactivity (PSR sort gate)": "high polyreactivity"}
